Key:
[1] = biological target: T1, Biotin-Tn(DT*R)-100 (Compound No. 21) (Homo sapiens, UniProt P15941); assay: Affinity of antibody, Biacore T100, sensor chip SA; type: binding; conditions: Biotin-Tn(DT*R)-100 solid-phased
T1 construct: made in house; host or cells: chemical solid-phase synthesis
Text: Biotin-Tn(DT*R)-100 (Compound No. 21) was solid-phased on a sensor chip SA (manufactured by GE Healthcare), and a dissociation constant of each of the following MUC1 antibody, 1B2, PankoMab (manufactured by GLYCOPOPE) currently at a pre-clinical stage, VU-2G7 (manufactured by MONOSAN) which is an antibody obtained by glycopeptide immunization, O.N.272 (manufactured by SantaCruz), C595 (manufactured by Acris), B416 (manufactured by GeneTex), and VU-3C6 (manufactured by Exalpha Biologicals) was analyzed using Biacore T100, and the result was as shown in the following Table 3.

[2] = test system: biotin-labeled T-47D culture supernatant; assay: Affinity of antibody, Biacore, sensor chip SA; type: binding, human; conditions: biotin-labeled T-47D culture supernatant solid-phased
Protocol: In addition, a human breast cancer cultured cell strain T-47D (ATCC Number HTB-133) was cultured on a Dulbecco's modified Eagle medium (DMEM; manufacture by Invitrogen), the supernatant was concentrated with Amicon ultra-100 (manufactured by MILLIPORE), and substituted with a 20 mM HEPES buffer (pH 7.6) containing 0.15 M NaCl. Sulfo-NHS-Biotin (manufactured by PIERCE) was added to 200 μl of the T-47D culture supernatant, followed by reaction on ice for 2 hours. Thereafter, substitution with a 20 mM Tris buffer (pH 7.6) containing 0.15 M NaCl was performed with a PD-10 column (manufactured by GE Healthcare) to obtain a biotin-labeled T-47D culture supernatant.

[3] = test system: Biotin-Tn(DT*R)-20, -40, -60, -80, -100 (Compound Nos. 17-21); assay: Tandem repeat dependency ELISA on Streptavidin solid-phased plate; type: binding
Protocol: To each well of a 384-well microtiter plate (manufactured by Nunc) 35 μl of a Tris buffer (50 mM Tris-HCl, pH 7.5) containing 0.35 μg of Streptavidin (manufactured by PIERCE) was added to perform immobilization at 4° C. for 16 hours. After these wells were washed with 90 μl of a washing solution (physiological saline containing 0.01% Tween 20) once, 200 μl of Block Ace (manufactured by Dainippon Sumitomo Pharma Co., Ltd.) was added, and this was allowed to stand at room temperature for 2 hours, to perform blocking (a Streptavidin solid-phased plate). […] Then, after each well was washed with 90 μl of a washing solution three times, 15 μl of TMB+-Substrate-Chromogen (manufactured by DAKO) was added to develop a color at room temperature for 30 minutes, 15 μl of 0.05 M sulfuric acid was added to stop the reaction, and absorbance at 450 nm was measured. […] Therefore, the antibody of the present invention can be said to have an affinity for Tn-100-mer biotin of lower than 1.0×10^−9 (M), and can be said to have the ability to bind to a Tn20-mer tandem structure fragment. More particularly, it can also be said that the antibody of the present invention has a ratio (A100/A20) of absorbance at 450 nm in the case of use of Tn20-mer biotin (A20) and absorbance at 450 nm in the case of use of Tn100-mer biotin (A100), of 2 or lower.

[4] = test system: human breast cancer tissue; assay: Immunological tissue staining; conditions: formalin-fixed, paraffin-embedded breast cancer tissue
Text: (§1) Immunological tissue staining of the 1B2 antibody to a piece of a human breast cancer tissue and a normal tissue around a breast cancer (BioCahin) which had been formalin-fixed and paraffin-embedded was implemented using the Vectastain elite ABC kit (manufactured by Vector Laboratories) and DAB (manufactured by Roche) according to the attached manual.

[5] = test system: normal tissue around a breast cancer; assay: Immunological tissue staining; design: species or system human; conditions: formalin-fixed, paraffin-embedded normal tissue around the breast cancer
Text: as §1

[6] = biological target: T2, Biotin-2,3-ST(DT*R)-20 (Compound No. 16) (Homo sapiens, UniProt P15941); assay: Hybridoma screening ELISA (selection of MUC1 antibody); type: binding; conditions: hybridoma culture supernatant
T2 construct: Synthesis of MUC1 Tn20-mer Glycopeptide; made in house; host or cells: chemical solid-phase synthesis with enzymatic sialylation
T2 sequence (P15941 136-155): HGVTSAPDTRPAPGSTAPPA
Protocol: Ten days after cell fusion, screening of a specific antibody-producing cell was performed. ELISA was used in screening is as follows. To each well of a 384-well microtiter plate (manufactured by Nunc) 35 μl of a Tris buffer (50 mM Tris-HCl, pH 7.5) containing 0.35 μg of an anti-mouse IgG antibody (manufactured by Shibayagi Co., Ltd.) was added to immobilize the antibody at 4° C. for 16 hours. After these wells were washed with 90 μl of a washing solution (physiological saline containing 0.01% Tween 20) once, 200 μl of BLOCK ACE (manufactured by Dainippon Sumitomo Pharma Co., Ltd.) was added, and this was allowed to stand at room temperature for 2 hours for blocking (an anti-mouse IgG antibody solid-phased plate). […] Then, after each well was washed with 90 μl of a washing solution three times, 25 μl of TMB+-Substrate-Chromogen (manufactured by DAKO) was added to develop a color at room temperature for 30 minutes, 25 μl of 0.05 M sulfuric acid was added to stop the reaction, and absorbance was measured at 450 nm. […] Using a mouse monoclonal antibody isotyping ELISA kit (manufactured by BD Bioscience), a subclass of the antibody was determined and, as a result, an isotype of 1B2 was IgG2a.

[7] = test system: human breast cancer cell strains (T-47D)
Protocol: Antibody-dependant cytotoxicity was analyzed by a chromium release test. Human peripheral mononuclear cell (PBMC) was separated from peripheral blood of a healthy person using Ficoll-paque PLUS (manufactured by GE Healthcare) according to the package insert. DMEM containing 10% FCS was added to the separated PBMC so that the number became 4×10^6/ml.
50 μl of physiological saline containing 1.85 MBq ^51Cr (manufactured by Perkin Elmer) was added to 200 μl of DMEM containing 1×10^6 human breast cancer cell strains (T-47D) and human mammary gland epithelial cell strains (184A1) and the reaction was allowed to proceed at 37° C. for 1 hour. Thereafter, cells were washed with 10 ml of DMEM three times, and DMEM was added to 5×10^4 cells/ml. […] Thereafter, 100 μl of PBMC was added and the reaction was allowed to proceed at 37° C. for 2 hours. Thereafter, the plate was centrifuged at 500×g for 5 minutes at room temperature and γ-ray of 100 μl of the supernatant was measured with ARC-7001 (manufactured by Aloka). Antibody-specific cytotoxicity (%) was obtained using the following calculation equation. Cytotoxicity(%)=(experimental value−natural release)/(maximum release−natural release)×100

[8] = read-out: dissociation constant KD

T1 sequence (P15941 136-235): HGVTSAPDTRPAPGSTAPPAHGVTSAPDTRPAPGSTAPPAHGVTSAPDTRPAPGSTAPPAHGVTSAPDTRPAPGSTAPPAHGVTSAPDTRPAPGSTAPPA

- Kd1 [1]: 0.00015 s⁻¹
- ka1 [1]: 410000 M⁻¹ s⁻¹
- Kd [1, 8]: 0.37 nM
- Kd [2, 8]: 2.6 nM
- affinity for 2,3-ST(DT*R)-20 in screening [6]: strong affinity
B1: 1B2: mouse monoclonal anti-MUC1 antibody, isotype IgG2a, clone from immunization with 2,3-ST(DT*R)-20 conjugated to BSA (antibody, V domains shown)
VH: MEWIWIFLFILSGTAGVQSQVQLQQSGAELARPGASVKLSCKASGYTFTNYGLSWVKQRTGQGLEWIGENHPGSGIIYHNEKFRGKATLTADKSSSTAYVQLSSLTSEDSAVYFCARSSGTRGFAYWGQGTLVTVSA
VL: MKLPVRLLVLMFWIPASSSDVLMTQTPLSLPVSLGDQASISCRSSQSIVHSNGNTYLEWYLQKPGQSPKLLIYKVSNRFSGVPDRFSGSGSGTDFTLKISRVEAEDLGVYYCFQGSHGPWTFGGGTKLEIKRA
modifications: Antibody 1B2 VH sequence; Antibody 1B2 VL sequence
- Kd1 [2]: 0.0012 s⁻¹
- ka1 [2]: 470000 M⁻¹ s⁻¹
- reactivity by peptide chain length ([3]; Biotin-Tn(DT*R)-40, -60, -80, -100): approximately the same reactivity
- dependency on the length of the tandem repeat ([3]; absorbance at 450 nm, 20-mer to 100-mer): low dependency on a length of the tandem repeat
- stained image [4]: recognized
- stained image [5]: scarcely recognized
- Antibody-specific cytotoxicity [7]: about 15%
